{"source": "paper PMC4516351", "about": "“Est16, a New Esterase Isolated from a Metagenomic Library of a Microbial Consortium Specializing in Diesel Oil Degradation” (PLoS ONE, 2015)", "test_in_all_cases": "purified protein", "assay_type_in_all_cases": "biochemical, uncultured bacterium", "key": {"[1]": {"system": "T1, CCCC(=O)Oc1ccc([N+](=O)[O-])cc1", "T1 construct": "full-length ORF (906 bp, 302 residues), pET28a, N-terminal His6-tag and thrombin site, tag cutting not mentioned; E. coli BL21(DE3); IMAC and SEC", "settings": "50 mM Tris-HCl pH 8.0, 30°C, 0.3% (v/v) triton X-100, 15 nM enzyme"}, "[2]": {"system": "T2, CCCCC(=O)Oc1ccc([N+](=O)[O-])cc1", "T2 construct": "full-length ORF (906 bp, 302 residues), pET28a, N-terminal His6-tag and thrombin site, tag cutting not mentioned; E. coli BL21(DE3); IMAC and SEC", "settings": "50 mM Tris-HCl pH 8.0, 30°C, 0.3% (v/v) triton X-100, 15 nM enzyme"}, "[3]": {"system": "T3, CCCCCCCCCCCC(=O)Oc1ccc([N+](=O)[O-])cc1", "T3 construct": "full-length ORF (906 bp, 302 residues), pET28a, N-terminal His6-tag and thrombin site, tag cutting not mentioned; E. coli BL21(DE3); IMAC and SEC", "settings": "50 mM Tris-HCl pH 8.0, 30°C, 0.3% (v/v) triton X-100, 50 nM enzyme"}, "[4]": {"system": "T4, CCCCCCCC(=O)Oc1ccc([N+](=O)[O-])cc1", "T4 construct": "full-length ORF (906 bp, 302 residues), pET28a, N-terminal His6-tag and thrombin site, tag cutting not mentioned; E. coli BL21(DE3); IMAC and SEC", "settings": "50 mM Tris-HCl pH 8.0, 30°C, 0.3% (v/v) triton X-100, 15 nM enzyme"}, "[5]": {"system": "T5, CCCCCCCCCC(=O)Oc1ccc([N+](=O)[O-])cc1", "T5 construct": "full-length ORF (906 bp, 302 residues), pET28a, N-terminal His6-tag and thrombin site, tag cutting not mentioned; E. coli BL21(DE3); IMAC and SEC", "settings": "50 mM Tris-HCl pH 8.0, 30°C, 0.3% (v/v) triton X-100, 15 nM enzyme"}}, "data": [{"substance": "Est16 (uncultured bacterium)", "values": [{"measurement": "Km", "setting": "[1]", "result": "225.1 ± 31.8", "unit": "µM"}, {"measurement": "Vmax", "setting": "[1]", "result": 206, "unit": "µM/min"}, {"measurement": "kcat", "setting": "[1]", "result": "220 ± 9.72", "unit": "s⁻¹"}, {"measurement": "kcat/Km", "setting": "[1]", "result": "998000 ± 142000", "unit": "M⁻¹ s⁻¹"}, {"measurement": "Km", "setting": "[2]", "result": "320.4 ± 32.5", "unit": "µM"}, {"measurement": "Vmax", "setting": "[2]", "result": 197, "unit": "µM/min"}, {"measurement": "kcat", "setting": "[2]", "result": "211 ± 7.26", "unit": "s⁻¹"}, {"measurement": "kcat/Km", "setting": "[2]", "result": "665000 ± 66700", "unit": "M⁻¹ s⁻¹"}, {"measurement": "Km", "setting": "[3]", "result": "969.5 ± 42.5", "unit": "µM"}, {"measurement": "Vmax", "setting": "[3]", "result": 22.9, "unit": "µM/min"}, {"measurement": "kcat", "setting": "[3]", "result": "24.5 ± 0.535", "unit": "s⁻¹"}, {"measurement": "kcat/Km", "setting": "[3]", "result": "25000 ± 1670", "unit": "M⁻¹ s⁻¹"}, {"measurement": "Km", "setting": "[4]", "result": "628.6 ± 101.4", "unit": "µM"}, {"measurement": "Vmax", "setting": "[4]", "result": 128, "unit": "µM/min"}, {"measurement": "kcat", "setting": "[4]", "result": "137 ± 9.19", "unit": "s⁻¹"}, {"measurement": "kcat/Km", "setting": "[4]", "result": "223000 ± 36700", "unit": "M⁻¹ s⁻¹"}, {"measurement": "Km", "setting": "[5]", "result": "1066.0 ± 116.9", "unit": "µM"}, {"measurement": "Vmax", "setting": "[5]", "result": 82.7, "unit": "µM/min"}, {"measurement": "kcat", "setting": "[5]", "result": "88.4 ± 4.81", "unit": "s⁻¹"}, {"measurement": "kcat/Km", "setting": "[5]", "result": "83300 ± 10000", "unit": "M⁻¹ s⁻¹"}]}]}
